Assay [1] has as its target Gi3 heterotrimer of the BRET-based Gi-activation sensor (Gai3-RlucII / GFP10Gγ2 / Gβ1) (UniProt P08754).
Assay [2] has as its target Gs protein (human (endogenous in HEK293T)) (UniProt P63092).
Sequence of UniProt P63092 (P63092 whole entry, looked up): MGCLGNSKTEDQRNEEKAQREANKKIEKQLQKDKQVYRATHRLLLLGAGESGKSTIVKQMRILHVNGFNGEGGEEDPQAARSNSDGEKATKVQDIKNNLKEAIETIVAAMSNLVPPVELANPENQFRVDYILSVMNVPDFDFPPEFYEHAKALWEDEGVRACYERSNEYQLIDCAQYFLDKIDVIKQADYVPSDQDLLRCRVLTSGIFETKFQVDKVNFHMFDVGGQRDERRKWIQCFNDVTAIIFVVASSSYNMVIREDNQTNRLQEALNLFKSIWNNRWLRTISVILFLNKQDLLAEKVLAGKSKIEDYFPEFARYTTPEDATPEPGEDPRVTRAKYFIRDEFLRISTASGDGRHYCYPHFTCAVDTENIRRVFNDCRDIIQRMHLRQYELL

Sequence of UniProt P08754 (P08754 whole entry, chain 1 of 3): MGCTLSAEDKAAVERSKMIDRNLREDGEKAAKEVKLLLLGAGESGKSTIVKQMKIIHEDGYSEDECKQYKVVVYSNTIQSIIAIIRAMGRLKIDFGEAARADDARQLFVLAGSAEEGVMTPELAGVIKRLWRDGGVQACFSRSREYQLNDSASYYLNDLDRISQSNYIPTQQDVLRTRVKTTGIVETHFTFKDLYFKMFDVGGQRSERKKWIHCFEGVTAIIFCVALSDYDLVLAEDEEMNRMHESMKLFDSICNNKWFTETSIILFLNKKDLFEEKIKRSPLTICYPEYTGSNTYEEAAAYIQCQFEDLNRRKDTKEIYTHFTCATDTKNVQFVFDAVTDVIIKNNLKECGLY
Sequence of UniProt P08754 (P62873 whole entry, chain 2 of 3, further chain): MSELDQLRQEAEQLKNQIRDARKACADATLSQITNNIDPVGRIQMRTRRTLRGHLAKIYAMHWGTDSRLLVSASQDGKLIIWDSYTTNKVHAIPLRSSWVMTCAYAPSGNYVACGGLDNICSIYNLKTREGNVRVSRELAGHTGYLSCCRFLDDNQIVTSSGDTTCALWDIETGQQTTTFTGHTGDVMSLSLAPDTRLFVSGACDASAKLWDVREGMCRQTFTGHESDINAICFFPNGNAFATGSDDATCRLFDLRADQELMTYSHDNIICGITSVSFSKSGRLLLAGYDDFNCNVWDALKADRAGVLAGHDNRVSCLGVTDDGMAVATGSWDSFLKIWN
Sequence of UniProt P08754 (P59768 whole entry, chain 3 of 3, further chain): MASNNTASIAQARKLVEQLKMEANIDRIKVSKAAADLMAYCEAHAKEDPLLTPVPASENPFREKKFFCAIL

Substance “HA-tagged human M1 muscarinic acetylcholine receptor (CHRM1) A424K (from UniProt P11229 1-460)” displayed an increase of the Emax of CHRM1 activation of Gi compared to WT CHRM1, BRET-based Gi-activation (Gi3) sensor in HEK293T, carbachol (% increase of Emax against WT) in assay [1] of 31.
With “HA-tagged human M1 muscarinic acetylcholine receptor (CHRM1) E221K (from UniProt P11229 1-460)”, the increase of the Emax of CHRM1 activation of Gi compared to WT CHRM1, BRET-based Gi-activation (Gi3) sensor in HEK293T, carbachol (% increase of Emax against WT) in assay [1] turned out to be 30.
“HA-tagged human M1 muscarinic acetylcholine receptor (CHRM1) L131F (from UniProt P11229 1-460)”: in assay [2], the increase of the Emax of Gs-dependent cAMP production following carbachol, EPAC-BRET sensor in HEK293T with 500 nM of the Gq inhibitor YM-254890, against WT CHRM1 (% increase of Emax) worked out at 51.
On to “HA-tagged human M1 muscarinic acetylcholine receptor (CHRM1) R218Q (from UniProt P11229 1-460)”, for which, in assay [2], the increase of the Emax of Gs-dependent cAMP production following carbachol, EPAC-BRET sensor in HEK293T with 500 nM of the Gq inhibitor YM-254890, against WT CHRM1 (% increase of Emax) was found to be 17.
